B1: ADAMTS4 (enzyme, UniProt O75173 213-837, looked up, species assumed)
A disintegrin and metalloproteinase with thrombospondin motifs 4: FASLSRFVETLVVADDKMAAFHGAGLKRYLLTVMAAAAKAFKHPSIRNPVSLVVTRLVILGSGEEGPQVGPSAAQTLRSFCAWQRGLNTPEDSDPDHFDTAILFTRQDLCGVSTCDTLGMADVGTVCDPARSCAIVEDDGLQSAFTAAHELGHVFNMLHDNSKPCISLNGPLSTSRHVMAPVMAHVDPEEPWSPCSARFITDFLDNGYGHCLLDKPEAPLHLPVTFPGKDYDADRQCQLTFGPDSRHCPQLPPPCAALWCSGHLNGHAMCQTKHSPWADGTPCGPAQACMGGRCLHMDQLQDFNIPQAGGWGPWGPWGDCSRTCGGGVQFSSRDCTRPVPRNGGKYCEGRRTRFRSCNTEDCPTGSALTFREEQCAAYNHRTDLFKSFPGPMDWVPRYTGVAPQDQCKLTCQAQALGYYYVLEPRVVDGTPCSPDSSSVCVQGRCIHAGCDRIIGSKKKFDKCMVCGGDGSGCSKQSGSFRKFRYGYNNVVTIPAGATHILVRQQGNPGHRSIYLALKLPDGSYALNGEYTLMPSPTDVVLPGAVSLRYSGATAASETLSGHGPLAQPLTLQVLVAGNPQDTRLRYSFFVPRPTPSTPRPTPQDWLHRRAQILEILRRRPWAGRK
B2: mesotrypsin, activated with enterokinase (C-terminal myc and His6 tags, expressed from pDEST40) (protein)
chain: IVGGYTCEENSLPYQVSLNSGSHFCGGSLISEQWVVSAAHCYKTRIQVRLGEHNIKVLEGNEQFINAAKIIRHPKYNRDTLDNDIMLIKLSSPAVINARVSTISLPTAPPAAGTECLISGWGNTLSFGADYPDELKCLDAPVLTQAECKASYPGKITNSMFCVGFLEGGKDSCQRDSGGPVVCNGQLQGVVSWGHGCAWKNRPGVYTKVYNYVDWIKDTIAANSEQKLISEEDLNSAVDHHHHHH
B3: Cathepsin G (enzyme, UniProt P08311 21-244, looked up, species assumed)
Cathepsin G: IIGGRESRPHSRPYMAYLQIQSPAGQSRCGGFLVREDFVLTAAHCWGSNINVTLGAHNIQRRENTQQHITARRAIRHPQYNQRTIQNDIMLLQLSRRVRRNRNVNPVALPRAQEGLRPGTLCTVAGWGRVSMRRGTDTLREVQLRVQRDRQCLRIFGSYDPRRQICVGDRRERKAAFKGDSGGPLLCNNVAHGIVSYGKSSGVPPEVFTRVSSFLPWIRTTMRS

Tests used:
[1] = molecular target: recombinant human TNFα (RDI) (UniProt P01375)
[2] = molecular target: recombinant human TNFα (RDI), P01375
Chain of recombinant human TNFα (RDI), P01375 (P01375 77-233): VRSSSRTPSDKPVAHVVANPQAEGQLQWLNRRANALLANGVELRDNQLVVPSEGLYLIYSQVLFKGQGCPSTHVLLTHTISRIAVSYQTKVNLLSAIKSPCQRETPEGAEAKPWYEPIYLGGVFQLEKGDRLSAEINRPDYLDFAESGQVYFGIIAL

Chain of recombinant human TNFα (RDI) (P01375 77-233): as above

Row | Protein | inactivation of TNFα bioactivity, L929 cytotoxicity bioassay after overnight digestion [1] | cleavage of TNF, Western blot with anti-TNF antibody after overnight incubation [2] | inactivation of TNF bioactivity, L929 bioassay after overnight digestion, 100 nM mesotrypsin and 100 nM TNF [2] | inactivation of TNF bioactivity, L929 bioassay after overnight digestion, mesotrypsin at 86, 43 and 22 nM with 100 nM TNF [2]
1 | B1 | ADAMTS4 (column: Proteases that did not inactivate TNF) |  |  | 
2 | B2 |  | but not by enzyme (mesotrypsin) to an appreciatable degree | at equimolar ratios, mesotrypsin achieved only marginal inactivation of TNF in solution | at these concentrations, the enzyme mesotrypsin, is either inactive or marginally active towards TNF
3 | B3 | Cathepsin G (column: Proteases that did not inactivate TNF) |  |  | 
